Source: patent CN117858904A

Biological target: 人SIRPα抗原 (human signal regulatory protein alpha, proprietary antigen) (human) (UniProt P78324)
Assay: BLI (Octet Red384), SIRPa on AR2G sensor, 50 nM CD47 without antibody as analyte (positive control), 1200 s association

Sequence of UniProt P78324 (P78324 31-370 limits assumed): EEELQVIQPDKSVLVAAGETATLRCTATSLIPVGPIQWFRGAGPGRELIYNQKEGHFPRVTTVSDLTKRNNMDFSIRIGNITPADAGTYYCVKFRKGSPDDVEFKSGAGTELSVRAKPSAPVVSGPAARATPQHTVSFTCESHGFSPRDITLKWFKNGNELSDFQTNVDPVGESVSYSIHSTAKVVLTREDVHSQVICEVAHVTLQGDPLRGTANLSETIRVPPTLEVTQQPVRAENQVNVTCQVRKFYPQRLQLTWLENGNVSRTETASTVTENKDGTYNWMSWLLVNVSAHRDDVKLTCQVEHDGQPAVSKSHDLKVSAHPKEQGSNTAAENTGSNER

信号 (response): 0.297 nm
Substance: 专有CD47抗原 (proprietary human CD47 antigen of Examples 6 and 7) (from UniProt Q08722 19-139) (receptor)
